Results reported in patent US20230340111A1 (published 2023).
Where two headings read alike, the source gives them in different places.

Experiments:
[1] = target: T1, human FOLR1 expressed on SKOV-3 ovarian carcinoma cells (human, UniProt P15328 25-234); assay: saturation binding of 131I-labelled untagged VHH on SKOV-3 cells
T1 construct: Naturally expressed receptor on SKOV-3 cells; also called human FOLR1pos SKOV-3 cancer cells; human FOLR1-expressing cell line SKOV-3

[2] = target: T1, human FOLR1 expressed on SKOV-3 ovarian …; assay: as above; remark: listed apart in the source
Experimental: In a first part, their in vitro behaviour was assessed by means of investigating their cellular binding and retention over time. The binding potential of the resulting radioconjugates was assessed to confirm that this was not affected by the introduction of ¹³¹I-SGMIB into the amino acid sequence of the different VHHs. To this, human FOLR1^pos SKOV-3 cancer cells were incubated with serial dilutions with concentrations ranging from 0 to 300 nM of the different ¹³¹I-labelled, His₆ tagged VHHs. A 100-fold excess of the corresponding unlabeled VHH was added in parallel to saturate the human FOLR1 receptors expressed on cancer cells, to assess non-specific binding.
A1 and A2 parental untagged VHH’s and derivatives were radiolabeled with theranostic isotope ¹³¹I, as described in example 3, and subjected to saturation binding studies as described in example 6.

[3] = target: T1, human FOLR1 expressed on SKOV-3 ovarian …; assay: cellular retention on SKOV-3 cells: 10 nM 131I-VHH 1 h at 4 C, then up to 24 h at 37 C; membrane-bound plus internalized fraction
Outline: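 His₆-tagged and untagged ¹³¹I-VHHs were tested, with a 100-fold excess of unlabeled VHH for non-specific binding. Unbound and dissociated fractions were collected. Membrane-bound label was stripped with 0.05 M glycine pH 2.8, and internalized label was recovered by 1 M NaOH solubilization.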

T1 sequence (P15328 25-234 limits assumed): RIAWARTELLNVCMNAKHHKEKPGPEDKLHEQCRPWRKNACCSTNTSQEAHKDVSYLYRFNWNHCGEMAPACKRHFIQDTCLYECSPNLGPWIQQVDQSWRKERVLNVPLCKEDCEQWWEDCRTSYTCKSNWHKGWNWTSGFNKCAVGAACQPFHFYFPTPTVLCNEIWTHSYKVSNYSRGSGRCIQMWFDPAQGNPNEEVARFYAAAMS

EC50 [1]: 1.2 nM
EC50 [2]: 1.1 nM
cell-associated fraction of initial bound activity after 24 h [3]: ~40%
B1: 131I-labeled untagged VHH A1 (VHH)
VHH: DVQLVESGGGLVQPGGSLRLSCAASESIFSRNHMSWYRQAPGKQRELAAIITSDGNTNYPDSVKGRFTISRDNAKNTVYLQMNSLKPEDTAVYYCNTFGRSVAGFYDYWGQGTQVTVSS
modifications: [131I]SGMIB conjugated to lysine side-chain amine groups
